This note sets out measurements from the nanobody polyreactivity screen of Harvey et al. (2022).

This data set is described as follows: yeast display, Sf9 membrane polyspecificity reagent, FACS + sequencing; frameworks hold sequencing errors. Summed up:
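Nanobodies from a synthetic yeast display library (Saccharomyces cerevisiae BJ5465), induced 36–48 hours with galactose, were stained 1 hour at 4 °C with 10% biotinylated, detergent-solubilized Sf9 membrane reagent, enriched on streptavidin microbeads, then FACS-sorted. Anti-HA (expression) and streptavidin (reagent binding) fluorescence set low and high (top ~1%) gates. Polyreactivity labels come from the gate of origin. Genes were colony-PCR amplified, MiSeq 2 × 250 sequenced and filtered by CDR length.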
For “QVQLVESGGRLVQAGGSLRLSCAASGIIFSGYAMGRYRPAPGTVREFVAAIDSVTSTYYADSVKGRFTTSRDNANNTVYLQMISLKPEVTAVYYCNARSDCTWYTLDYWGQGTQVTVSS”, the “polyreactivity (PSR sort gate)” value is on record as “high polyreactivity”.

Regarding “QVQLVESGGGLVQAGGSLRLSCAHSGFTFTYYAMGWYRQAPGKEREFVAGISRSGGSTYYADSVKGRFTISRDIAKNTVYLQMNSLKPEDTAVYYCAATAYSPRGKRYDSWGQGTQVTVSS”, the “polyreactivity (PSR sort gate)” value is on record as “high polyreactivity”. Turning to “QVQLVESGGGLVQAGGSLRLSCAASGSIFRLNAMGWYRQAPGKERELVAAISRNTGRTYYADSVKGRFTISRDNAKNTVYLQMNSLKPEDTAVYYCAADRSPTGYVRVYYWGQGPQVTVSS”, the “polyreactivity (PSR sort gate)” value is on record as “high polyreactivity”. With “QVQLVESGGGLVQAGGSLRLSCAASGRIFLYNVMGWYRQAPGKERELVAAISWSGTRTYYADSVKGRFTISRDNAKNTVYLQMNSLKPEDTAVYYCNACRYYRHDYWGQGTQVTVSS” the entry was “low polyreactivity”; with “QVQLVDSGGGLVQAGGSLRLSCAASGSIFKFYTMGWYRQAPGKERQLVAAISSSDGSTHYADSVKGRFTISRDNAKNTVYLQMNSLKPEDTAVYYCARRRYSRYSVTRGNYWGQGTQVTVSS”, “high polyreactivity”. With “QVQLVESGGGLVQAGGSLRLSCAASGSIFLNNAMGWYRQAPGKERELVAAITRNVGSTYYADSVKGRFTISRDNAKNTVYLQMNSLKPEDTAVYYCAADRRRRYDYWGQGTQVTVSS” the entry was “low polyreactivity”; with “QVQLVESGGGLVQVGGSLRLSCAASGITLSYYAMGWYRQAPRKERELVASITVSRTSTYYADSVKGRFTISRDNAKNTVYLQMNSLKPEDTEVYYCNADGDHPYRRNDYWGQGTQVTVSS”, “low polyreactivity”; with “QVQLVESGGGLVQAGGSLRVSCAASGRILPFYAMGWYRQAPGKERELVATISWTSDSTYYADSVKGRFTISRDNAKNTVSLQMNSLKPEDTAVYYCAREYTYTYASTVIYDHWGQGTQVTVSS”, “low polyreactivity”. Consider “QVQLVESGGGLVQAGGSLRLSCAASGRRFRWYVMGWYRQAPGKERELVARISSNVGSTYYADSVKGRFTISRDNAKNTVYLQMNSLKPEDTAVYYCAAGPPKYYYSNRYYWGQGTQVTVSS”, for which the “polyreactivity (PSR sort gate)” value is given as “high polyreactivity”.

As for “QVQLVESGGGLVQAGGSLRLSCAPSGFIFEGNAMGWYRQAPGKERELVATISRSGGRTNYADSVKGRFTISRDNAKNTVYLQMNSLKPEDTAVYYCAAAYLRRVAYDYWGQGTQVTVSS”, the “polyreactivity (PSR sort gate)” value is “high polyreactivity”.

Regarding “QVQRVESGGGLVQAGGSLRLSCAASGSTLRYYAMGWYRQAPGKERELVAGIRYRGGSTSYADSVKGRFTISRDNAKNTVYLQMNSLKPEDTAVYYCATGIYRARTSSFRMGYWGQGTQVTVSS”, the “polyreactivity (PSR sort gate)” value is listed as “low polyreactivity”. Turning to “QVQLVESGAGLVQAGGSLRLCCAASGRIFRSYAMGLYREAPGKERELVAAITWSGGSTYYADSVKGRFTISRDNAKNSVYLQMNSQKPEETAVYYCARVDTKKYSHTGYEYWGQGTQVTVSS”, the “polyreactivity (PSR sort gate)” value is recorded as “high polyreactivity”. Regarding “QVQLVESGGGLVQAGGSLRLSCAASGRIYYYYTMGWYRQAPGKERELVAGISRSGDRTYYADSVKGRFTISRDIAKNTVYLQMNSLKPEDTAVYYCATRWSSARMDYWGQGTQVTVSS”, the “polyreactivity (PSR sort gate)” value is “high polyreactivity”. In the case of “QVQLVESGGGLVQAGGSLRLSCAASGRTFSYNAIGWYRLAPGKERELVARISSGGSTNYADSVKGRFTISRDNAKNTVYLQMNSLKPEDTAVYYCNAVYRTYEYYWGQGTQVTVSS”, the “polyreactivity (PSR sort gate)” value is “high polyreactivity”. With “QVQLVESGGGLVQAGGSLRLSCAASGRIFESKAMGWYRQAPGKERELVAAISVNGASTSYADSVKGRFTISRDNAKNTVYLQMNSLKPEDTAVYYCAARRGKGYYYWGQGTQVTVSS” the entry was “high polyreactivity”; with “QDHLVESGGGLVQAGGSLRLSCAASGFLFSQNVMGWYRQAPGKERELVAAISSGSRTYYADSVKGRFTISRDNAKNTVYLQMISLKPEDTAVYYCATDARVGGYVSEGDYWGLGTQVTVSS”, “low polyreactivity”; with “QVQLVESGGGLVQAGGSLRLSCAASGSIFGGYAMGWYRPAPGKERELVASITKSGDSTYADSVKGRFTISRDNAKNTVYLQMNSLKPEDTAVYDCAADSTFGKFEYWGQGTQVTVSS”, “low polyreactivity”. With “QVQLVESGGGLVQAGGSLRLSCAASGSTFRPSAMGWYRQAPGKERELVAAIRSGRTSYADSVKGRFTISRDYAKNTVYLQMNSLKPEDTAVYYCAKASRGGYYWGQGTQVTVSS”, the “polyreactivity (PSR sort gate)” value is listed as “high polyreactivity”. For the sequence “QVQLVESGGCLVQAGGSLRLSCAASGFIFSSYAMGWYRQAPGKERELVAAISVSGGSTNYADSVKGRFTISRDNAKNTVFLQMNSLKPEDTAVYYCAARVRDSLVYGGWDDYWGQGTQVTVSS”, the “polyreactivity (PSR sort gate)” value was “high polyreactivity”. On to “QVQLEESGGGLVQAGGSLRLICAASGSTFGDNAMGWSRQAPGKEGEFVAGISTNGGSTYYADSVKGRFTISRDNAKNTFYLQMNSLKPEDIAVYSCAAVNYYDQYGDYYWGQGTQVTVSS”, for which the “polyreactivity (PSR sort gate)” value is “low polyreactivity”. As to “QVQLVESGGGLVQAGGSLRLSCAASGSNFNYYVMGGYRQAPGKERELVAAISRSGTSTYYADSVKGRFTISRDNAKNTVYLQMNRLKPEDSSVYYCAARVSHKYRTYYYWGQGTQVTVSS”, the “polyreactivity (PSR sort gate)” value is reported as “high polyreactivity”. “QVQLVESGGGLVQAGGSLRLSCAASGRTFGYNTMGWYRQQPGKEREFVAAINYSGGSTYYADSVKGRFTISRDYGKNTVYLQMNSLKPEDTAVYYCNAKPRWYVPYDYWGQGTQVTVSS”: the “polyreactivity (PSR sort gate)” value is given as “high polyreactivity”. With “QVQLVESGGGLVQAGGSLRLSSAASGSIFNYNAMGWYRQAPGKERELVAAISSSGSTNYADSVKGRFTISRDNAKNTVYLQMNSLKPEDTAVYYCAADYGSYGVVRAVSIEYEYWGQGTQVTVSS” the entry was “low polyreactivity”. With “QVQLVESGGGLVQAGGSLRLSCAASGITFFGYAMGWYREAPGKERELVAGISRSTGRTYYADSVKGRFTISRDNAKNTVYLQMNILKPEDTAVYYCAARATRSLSRYMDYWGQGTQVTVSS” the entry was “high polyreactivity”; with “QVQLVESGGGLVQAVGSLRLSCAASGSIFPVYAMGWYRQAPGKERELVADITYTTGSTYYADSVKRRFTISRDNAKNTFYLQMNSLKPEDTAVYYCAKDFGFQSDSWGQGTQVTVSS”, “low polyreactivity”. With “QVQLVESGGGLVQAGGSLRLSCAASGRTFFKYVMGWYRQAPGKERELVAAISYRSGSTYYADSVKGRFTISRDNAKNTVYLQMNSLKPEDTAVYYCAKEPPPVKGDYWGQGTQVTVSS” the entry was “low polyreactivity”.

As to “QVQLVESGGGLVQAGGSLRLSCAASGNIFSVYAMVWYRPAPGKERELVAAISSSGGRTYYADSVKGRFTISRDNAKNTVYLQMNSLKPEDTAVYYCAARSYTGQFGYWGQGTQVTVSS”, the “polyreactivity (PSR sort gate)” value is on record as “high polyreactivity”. As to “QVQLLESGGGLVQAGGSLRLSCAPSGFTYRYNAMVWYRQAPGIERELVAAISSRGGSTYYADSVKGRFTISRDNAKNTVYFQMNSLKPEDTGVYYCARDDWVYTNVEMDYWGQGTQVTVSS”, the “polyreactivity (PSR sort gate)” value is “high polyreactivity”. Consider “QVQLVESGGGLVQAGGSLRLSCAASGSIFYSNVMGWYRLAPGKERELVAAITRGGGTNYADSVKGRFTISRDNAKNTVYLQMNSLKPEDTAVYYCNRDPQKYRWIPRYDYWGQGTQVTVSS”, for which the “polyreactivity (PSR sort gate)” value is on record as “low polyreactivity”. Take “HVQLVESGGGLVQAGGSLRLSCAASGSTFAGNAMGWYRQAPGKEWELVAAIDSSTGSTYYADSVKGRFTISRDNAKNTVNLQMNSLKPEDTAVYYCNKTSFLVKLDYWGQGTQVTVSS”: the “polyreactivity (PSR sort gate)” value is “low polyreactivity”.

As for “QVQLVESGGGLVQAGGSLRLSCAASGRTSSSNAMGWYRQAPGKERELVATISRTGSTYYADSVKGRFTISRDNAKNTVYLQMNSLKPEDTAVYYCNRYFSEALLHGSCYNRYYYWGQGTQVTVSS”, the “polyreactivity (PSR sort gate)” value is on record as “low polyreactivity”. With “QVQLVESGGGLVQAGGSLRLSCAASGYTLRPNGMGWYRPAPGKERELVAAISSGGSTYYADSVKGRFTISRDNAKNTVYLQMNSLKPEDTAVYYCAAEYWYDYWGQGTQVTVSS” the entry was “low polyreactivity”; with “QVQLVESGGGLVQAGGSLRLSCAASGFTFYYYTMGGSRQAPGKERELVAAITSRGGNTYYADSVKGRFTISRDYAKNTVYLQMNSLNPEDTAVYYCAACRFSSRGYGYWGQGTQVTVSS”, “high polyreactivity”; with “QVQLVESGGGLVQAVGSLRLSCAASASIFRNNAMGWYRQAPGKERELVASISSSGDNTNYADSVKGRFTISRDNAKNTVYLQMNSLKPEDTAVYYCAAANKGPDQADYHYDQWGQGTQVTVSS”, “low polyreactivity”. Take “QVQLVESGAGLVQAGGSLRISGAASGRIFGKYAMGWYRQPPGKEREFVARISFSGGTTYYADSVKGRFTISRDNAKNTVYLQMNSLKPEDTAVYYCAARRQSGYGRQLDYWGQGTQVTVSS”: the “polyreactivity (PSR sort gate)” value is on record as “high polyreactivity”. With “QVQLVESGGGLVQAGGSLRLSCAASGSIFLAYAMGCYRQATAKEREFVAANSFSDGSTYYADSVKGRFTISRDNAKNTVYLQMNSLKPEDTAVYYCNKGASPDDYDYWGQGTQVTESS” the entry was “low polyreactivity”; with “QVQLVESGGGLVQAGGSLRLSCAASGSTLARYTMGWYRQAPGKERELVATIDFGGVNTYYADSVKGRFTISRDTAKNTVYLQMNSLKPEDTAVYYCAAYNRLKRNVLYDYWGQGTQVTVSS”, “low polyreactivity”. With “QVQLVESGGGLVQAGGSLRLSCAASGLIFATYTMGWYRQAPGKERELVAAITWSGGRTYYADSVKGRFTISRDNAKNTVYLQMNSLKPEDTAVYYCAADPSYALGYDYWGQGTQVTVSS” the entry was “high polyreactivity”. With “QVQLVESGGGLVQAGGSLRLSCAASGSTFTYNAMGWYRQAPGKERELVASISSGTTTYYADSVKGRFTISRDNAKNTVYFQMHSLKPEDTAVYYCAVDSWSRVQGWLAHNYDYWGQGTQVTVSS” the entry was “low polyreactivity”; with “QVQLVESGGGLVQAGCSLRLSCAASGRIFWMNTMGRYRQAPGKERELVAAISFRSDDTYYADSVKGRFTISRDIAKNTVYLQMKSLKPEDTAVYYCNKAWFPYYFYRFDYWGQGTQVTVSS”, “high polyreactivity”; with “QVQLVESGGGLVQAGGSLRLSCAASGLTFYSYAMGWYRQAPGKERELVAAISKSGGSTYYADSVKGRFTISRDNAKNTVYLQMNSLKPEDTAVYYCNALTKTGTPPDYDYWGQGTQVTVSS”, “high polyreactivity”.
